Measurements reported in article PMC3048825.

Experiments:
[1] = biological target: trimerization domain of human type XV collagen, XV(TD) (human); assay: SEC
[2] = biological target: trimerization domain (TD) of human collagen XVIII, XVIII(TD) (human) (UniProt P39060); assay: AUC
[3] = biological target: trimerization domain (TD) of human collagen XVIII, XVIII(TD) (human) (UniProt P39060); assay: cross-linking

Row | Substance | stoichiometry N [1] | stoichiometry N [2] | stoichiometry N [3]
1 | trimerization domain of human type XV collagen, XV(TD) (domain or fragment) | 3 | – | –
2 | trimerization domain (TD) of human collagen XVIII, XVIII(TD) (from UniProt P39060 1442-1496) (domain or fragment) | – | 2.98 | 3
